According to article PMC9337809 (Brain, 2022):

Legend:
Assay in all cases: ELISA
[1] = biological target: α-synuclein protein aggregates (Homo sapiens, UniProt P37840)
SOD protein aggregates = SOD protein aggregates (Homo sapiens (assumed), UniProt P00441)
[2] = biological target: Aβ(1–28), synthetic, aggregated in the presence of Ca2+ (Homo sapiens, UniProt P05067)
Aβ(1–28), synthetic, aggregated in the presence of Ca2+, sequence (P05067 672-699): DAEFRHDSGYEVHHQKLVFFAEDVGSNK

SOD protein aggregates, sequence (P00441 whole entry): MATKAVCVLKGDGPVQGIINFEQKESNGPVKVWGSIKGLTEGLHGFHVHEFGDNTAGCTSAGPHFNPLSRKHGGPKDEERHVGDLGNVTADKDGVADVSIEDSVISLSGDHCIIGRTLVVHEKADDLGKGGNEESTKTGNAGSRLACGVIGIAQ

Binder | binding result [1] | binding result (SOD protein aggregates) | binding result [2]
B28, human monoclonal antibody raised against synthetic oligomeric amyloid-β (antibody, V domains shown) VH: QVQLVESGGGVVQPGRSVRLSCAATGFTFSSYGMHWVRQAPGKGLEWVAVIWFDGSNEYYADSVRGRFTISRDNSKNTLYLQMNSLRAEDTAVYYCARRGRVGVTRNYYYYNMDVWGQGTTVTVSS VL: AIQMTQSPSSLSASVGDRVTITCRASQGIRNDLGWFQQKPGKAPKLLIYPASSLQSGVPSRFSGSGSDTDFTLTISSLQPEDFATYYCLQDYNFPFTFGPGTKVDIK | no binding | no binding | 
B24, human monoclonal antibody raised against synthetic oligomeric amyloid-β (antibody, V domains shown) VH: EVQLLESGGGLVQPGGSLRLSCAASGFTFSSYAMTWVRQAPGEGLEWVSTISGSGIRTYYADSVKGRFTISRDNSKNTMYLQMNSLRAEDTAVYYCAKDGLTGDRRWYFDLWGRGTLVTVSS VL: EIVMTQSPATLSLSPGERATLSCRASQSVSSSYFSWYQQKPGQAPRLLIYGASTRATGIPARFSGSGSGTDFTLTISSLQPEDFAVYYCQQDSNLPLTFGGGTKVEIK | no binding | no binding | binds
